Results reported in article PMC7354924.

Legend:
[1] = molecular target: growth differentiation factor 5 (GDF5), wild type (UniProt P43026)
Target sequence in this assay (P43026 382-501): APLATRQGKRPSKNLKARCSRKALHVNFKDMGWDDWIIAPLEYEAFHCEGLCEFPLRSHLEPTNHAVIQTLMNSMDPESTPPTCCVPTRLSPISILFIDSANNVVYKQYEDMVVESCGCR

[2] = molecular target: growth differentiation factor 5 (GDF5), wild type (UniProt P43026); assay: SPR; BMPR1A with BMP2, GDF5 and GDF5 variants; set-up not told for this pair in the main text (values in the discussion, SI Appendix Table S1); taken as the ProteOn set-up with immobilized ligands
Target sequence in this assay (P43026 382-501): as above

[3] = molecular target: bone morphogenetic protein 2 (BMP2) (UniProt P12643); assay: SPR
Chain of bone morphogenetic protein 2 (BMP2) (P12643 283-396): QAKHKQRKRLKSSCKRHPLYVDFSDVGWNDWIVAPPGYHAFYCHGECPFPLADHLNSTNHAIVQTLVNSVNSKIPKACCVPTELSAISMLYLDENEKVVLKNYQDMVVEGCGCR

[4] = molecular target: growth differentiation factor 5 (GDF5), wild type (UniProt P43026); assay: SPR; ProteOn XPR36, 25 °C; BMP/TGF-β ligands immobilized on GLC chips by amine coupling, RGM proteins as analytes; 10 mM Hepes pH 7.4, 500 mM NaCl, 3.4 mM EDTA, 0.005% Tween20; 1:1 Langmuir kinetic fit, Kd = koff/kon; apparent Kd
Target sequence in this assay (P43026 382-501): as the sequence (P43026 382-501) above

[5] = molecular target: bone morphogenetic protein 2 (BMP2) (UniProt P12643); assay: as above
[6] = molecular target: growth differentiation factor 5 (GDF5), wild type (UniProt P43026); assay: SPR; Biacore T200, 25 °C; GDF5 amine-coupled to a CM5 chip (830, 970 or 1370 RU); RGMBND variants or BSA as analytes; 0.5 M NaCl, 20 mM HEPES pH 7.4, 0.05% (v/v) Tween 20; Kd from the dose-dependency of equilibrium binding, 1:1 Langmuir isotherm
Target sequence in this assay (P43026 28-501): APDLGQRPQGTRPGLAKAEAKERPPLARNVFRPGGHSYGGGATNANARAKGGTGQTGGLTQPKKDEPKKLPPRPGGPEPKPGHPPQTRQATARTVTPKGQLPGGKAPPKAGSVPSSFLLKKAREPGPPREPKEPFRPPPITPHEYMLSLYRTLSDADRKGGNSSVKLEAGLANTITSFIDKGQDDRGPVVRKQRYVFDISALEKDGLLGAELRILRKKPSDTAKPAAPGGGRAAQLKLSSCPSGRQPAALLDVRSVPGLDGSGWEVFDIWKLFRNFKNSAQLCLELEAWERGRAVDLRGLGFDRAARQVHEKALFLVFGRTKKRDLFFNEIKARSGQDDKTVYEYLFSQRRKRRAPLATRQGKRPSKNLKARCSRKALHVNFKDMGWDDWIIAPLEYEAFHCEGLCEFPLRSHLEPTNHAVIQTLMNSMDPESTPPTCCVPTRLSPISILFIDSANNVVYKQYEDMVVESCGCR

[7] = molecular target: growth differentiation factor 5 (GDF5), wild type (UniProt P43026); assay: SPR; ProteOn XPR36; BMP2 (570 RU), GDF5 (470 RU), TGF-β2 (300 RU) or activin A (350 RU) amine-coupled to a GLC sensor chip; analyte perfused (RGMB 50 to 1.56 nM at 150 or 100 µl/min; BMPR1A 1000 to 31.25 nM at 100 µl/min); 20 mM HEPES pH 7.4, 500 mM NaCl, 3.4 mM EDTA, 0.005% (v/v) Tween 20; 25 °C; Langmuir 1:1 kinetic fit (parameters local for RGMB), Kd = koff/kon; apparent
Target sequence in this assay (P43026 28-501): as above

[8] = molecular target: growth differentiation factor 5 (GDF5), wild type (UniProt P43026); assay: SPR; ProteOn XPR36; BMP2 (570 RU) or GDF5 (470 RU) amine-coupled to a GLC sensor chip; ActR2b ectodomain perfused at 6 µM to 187.5 nM, 100 µl/min; 0.005% (v/v) Tween 20 buffer; Kd from the dose-dependency of equilibrium binding, one-site model; apparent
Target sequence in this assay (P43026 28-501): as above

[9] = molecular target: bone morphogenetic protein 2 (BMP2) (UniProt P12643)

Chain of BMPR1A ectodomain protein (residues Gln24 to Arg152) (P36894 24-152): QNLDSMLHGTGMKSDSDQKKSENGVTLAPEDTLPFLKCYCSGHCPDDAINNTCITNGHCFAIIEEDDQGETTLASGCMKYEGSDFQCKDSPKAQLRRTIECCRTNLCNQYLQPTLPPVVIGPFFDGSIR
Chain of murine activin type-2 receptor ActR2b, soluble ectodomain (residues Gly20 to Glu127) (P27040 20-127): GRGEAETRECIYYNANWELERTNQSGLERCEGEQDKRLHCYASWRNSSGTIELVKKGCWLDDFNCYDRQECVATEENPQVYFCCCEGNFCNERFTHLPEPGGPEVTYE

**Q.** “soluble RGMA extracellular domain (RGMAECD) for the ProteOn SPR studies (from UniProt Q96B86 48-424) (domain or fragment)” was tested. Which GDF5 (30 nM) BMP-responsive luciferase reporter in LLC-PK1 cells expressing full-length membrane-anchored RGMA [1] did it give?
**A.** 2 fold

**Q.** With “BMPR1A extracellular domain (BMPR1AECD, Thr55–Val141) (receptor)” as the substance, how does the Kd [2] read?
**A.** 125 nM

**Q.** What about the Kd [3] of the same substance?
**A.** 59 nM

**Q.** Which Kd [4] does the source give for “soluble RGMB extracellular domain (RGMBECD) for the ProteOn SPR studies (from UniProt Q6NW40 46-413) (domain or fragment)” here?
**A.** 2.7 nM

**Q.** What about the Kd [5] of the same substance?
**A.** 4.2 nM

**Q.** For RGMBND His106Arg (domain or fragment), which Kd [6] is on record?
**A.** > 200000 nM

**Q.** What does the source list for “BMPR1A ectodomain protein (residues Gln24 to Arg152) (from UniProt P36894 24-152) (receptor)”?
**A.** koff [7]: 0.0048 s⁻¹; kon [7]: 90000 M⁻¹ s⁻¹

**Q.** For “murine activin type-2 receptor ActR2b, soluble ectodomain (residues Gly20 to Glu127) (from UniProt P27040 20-127)”, which Kd [8] is on record?
**A.** 1300 nM

**Q.** For “extracellular domain of human RGMB (RGMBECD, Gln53–Ser411) (domain or fragment)”, which BMP2 (3 nM) BMP-responsive luciferase reporter in LLC-PK1 cells expressing full-length membrane-anchored RGMB [9] is on record?
**A.** 3 fold

**Q.** “soluble RGMC extracellular domain (RGMCECD) for the ProteOn SPR studies (from UniProt Q6ZVN8 36-400) (domain or fragment)” was tested. Which GDF5 (30 nM) BMP-responsive luciferase reporter in LLC-PK1 cells expressing full-length membrane-anchored RGMC [1] did it give?
**A.** 2 fold
